Laboratory results from patent US20190309033A1 (Eli Lilly, published 2019).

T1: human GFRAL (NCBI Ref. Sequence No. NP_997293.2) expressed on HEK293 cells with human RET51 (human, UniProt Q6UXV0 19-394)
T1 sequence (looked up): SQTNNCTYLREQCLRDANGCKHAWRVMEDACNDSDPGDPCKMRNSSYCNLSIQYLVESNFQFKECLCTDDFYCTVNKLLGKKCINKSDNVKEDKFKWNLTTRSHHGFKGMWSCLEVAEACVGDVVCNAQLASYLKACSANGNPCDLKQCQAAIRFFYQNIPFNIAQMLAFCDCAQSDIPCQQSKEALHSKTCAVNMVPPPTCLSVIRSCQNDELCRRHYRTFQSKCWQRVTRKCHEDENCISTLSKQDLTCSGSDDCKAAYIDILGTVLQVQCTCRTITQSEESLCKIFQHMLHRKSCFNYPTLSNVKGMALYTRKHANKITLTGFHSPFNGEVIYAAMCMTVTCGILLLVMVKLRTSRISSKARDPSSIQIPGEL

T2: HIS-tagged human GFRAL ECD (human, UniProt Q6UXV0 20-338)
T2 construct: Produced in CHOK1 cell derivatives; also called Human GFRAL ECD (D1-D2-D3-ECD) Receptor; soluble human GFRAL extracellular domain
T2 sequence: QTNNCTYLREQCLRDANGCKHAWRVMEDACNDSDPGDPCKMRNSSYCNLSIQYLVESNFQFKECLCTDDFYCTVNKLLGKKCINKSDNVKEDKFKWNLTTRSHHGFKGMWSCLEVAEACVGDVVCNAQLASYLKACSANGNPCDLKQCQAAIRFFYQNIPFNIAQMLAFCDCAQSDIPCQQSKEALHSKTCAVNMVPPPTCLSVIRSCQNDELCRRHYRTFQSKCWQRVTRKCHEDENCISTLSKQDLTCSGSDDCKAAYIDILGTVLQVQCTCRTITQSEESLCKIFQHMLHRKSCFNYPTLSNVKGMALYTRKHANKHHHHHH


Assays:
[1] = biological target: T1, human GFRAL (NCBI Ref. Sequence No. …); test: cell-based or functional assay
[2] = biological target: T2, HIS-tagged human GFRAL ECD; test: SPR, Biacore T200, 25 C; compound captured by immobilized anti-GDF15 antibody, GFRAL ECD as analyte; 1:1 fit
Method: To measure human GDF15 (des-ARN SEQ ID NO:1) or Compound 2 binding to human GFRAL ECD, a Biacore T200 Instrument is used to measure the binding kinetics of human GDF15 homodimer (des-ARN SEQ ID NO:1) and Compound 2 to the GFRAL ECD. Measurements are performed at 25° C. Samples are dissolved in HBS-EP+, pH 7.4 (GE Healthcare; 10 mM HEPES pH 7.4+150 mM NaCl+3 mM EDTA+0.05% surfactant P20). Goat […] GDF15 antibody (R&D) is immobilized on the flow cells of a CM5 sensor chip using amine coupling chemistry. GDF15 samples are prepared at 25 μg/ml by dilution into running buffer.
Human GFRAL ECD samples are prepared at final concentrations of 1000, 500, 250, 125, 62.5, 31.3, 15.6, 7.8, 3.9, 2.0 and 0 (blank) nM by dilution into running buffer. The SPR experiment includes the following steps: (1) capturing GDF15 samples on separate flow cells (Fc2, Fc3 and Fc4), (2) injecting 200 μl of human GFRAL ECD over all flow cells at […], (3) dissociating for 600 sec, (4) regenerating chip surfaces with a 10 μl (30 sec) injection of glycine, pH 1.5, at […], and (5) equilibrating chip surfaces with a 10 μl (30 sec) injection of HBS-EP+ at […]. Each concentration of human GFRAL ECD is injected in duplicate.
Data are processed using standard double-referencing and fit to a 1:1 binding model using Biacore T200 Evaluation Software to determine the association rate (kₒₙ, M⁻¹s⁻¹), dissociation rate (koff, s⁻¹) and maximum response (Rmax; response units (RU)). The equilibrium dissociation constant (KD) is calculated from the relationship KD=koff/kₒₙ (M).

EC50 of ERK1/2 phosphorylation (AlphaLISA pERK1/2) in HEK293 cells expressing human GFRAL and human RET51 [1] | Kd [2] | koff [2] | kon [2] | Binder
27.9 pM | – | – | – | Mature human GDF15 (homodimer of two compounds including SEQ ID NO: 1) (ligand) ARNGDHCPLGPGRCCRLHTVRASLEDLGWADWVLSPREVQVTMCIGACPSQFRAANMHAQIKTSLHRLKPDTVPAPCCVPASYNPMVLIQKTDTGVSLQTYDDLLAKDCHCI
86.2 pM | 8.3 nM | 0.00871 s⁻¹ | 1.05e+06 M⁻¹ s⁻¹ | Compound 2 (homodimer of two compounds including SEQ ID NO: 2) (Fc fusion, Homodimer linked by at least one interchain disulfide bond between the GDF15 portions; also called homodimer of the Fc-GDF15 Compound 1) EAAGGPSVFLFPPKPKDTLMISRTPEVTCVVVDVSQEDPEVQFNWYVDGVEVHNAKTKPREEQFNSTYRVVSVLTVLHQDWLNGKEYKCKVSNKGLPSSIEKTISKAKGQPREPQVYTLPPSQEEMTKNQVSLTCLVKGFYPSDIAVEWESNGQPENNYKTTPPVLDSDGSFQLESRLTVDKSRWQEGNVFSCSVMHEALHNHYTQKSLSLSLGGGGGAPAPAPAPAPAPAPAPAPAPGGGGGDHCPLGPGRCCRLHTVRASLEDLGWADWVLSPREVQVTMCIGACPSQFRAANMHAQIKTSLHRLKPDTVPAPCCVPASYNPMVLIQKTDTGVSLQTYDDLLAKDCHCI
